3 molecules from US20030113322A1 (published 2003) can be followed below.

No end group written: not given here.

The experiment concerns the target T1, biotinylated recombinant human soluble CD4 (rhCD4, Repligen) (human, UniProt P01730 26-396, limits assumed, biotinylated (sites not given)).
T1 construct: Soluble form, bought; biotinylated with a commercial reagent; also called biotinylated-rhCD4
The experiment can be described thus: Spot: cellulose-bound dodecapeptide, 20 nM biotinylated rhCD4. As for the experimental part:
The saturated membrane was incubated with a 20 nM solution of biotinylated-rhCD4 for 2 h at 37° C. Bound biotinylated-rhCD4 was detected by incubating the membrane for 1 h at 37° with a 1:3000 solution of alkaline phosphatase-conjugated streptavidin (Sigma, St. Louis, Mo., USA) and subsequent addition of 5-bromo-4-chloro-3-indolyl phosphate substrate. […] In all cases, the reactivity of the spots was evaluated by scanning the membrane and measuring the intensities of the spots with the NIH image 1.61 software.
The anti-CD4 immunoreactivity of these peptides was assessed by incubating the membrane with biotinylated-rhCD4.

On to IYSYLAWYQQKQ (also: bound to cellulose membrane (Spot synthesis), also called VL peptide 29) [cellulose-bound dodecapeptide 29 of the 13B8.2 VL sequence (linear form of CB8)], for which the binding result was “binds”.
For TTFGVHWVRQSP (also: bound to cellulose membrane (Spot synthesis), also called VH peptide 30) [cellulose-bound dodecapeptide 30 of the 13B8.2 VH sequence (linear form of CB2)], the binding result is “binds”.
The same measure for LTTFGVHWVRQS (also: bound to cellulose membrane (Spot synthesis), also called VH peptide 29) [cellulose-bound dodecapeptide 29 of the 13B8.2 VH sequence (linear form of CB1)]: “binds”.
